Reference: the RNAGym collection of RNA variant scans (doi:10.7554/elife.80360)

B1: CPEB3 Ribozyme (parent)
chain: GGGGGCCACAGCAGAAGCGUUCACGUCGCGGCCCCUGUCAGAUUCUGGUGAAUCUGCGAAUUCUGCUGU

Variants of: B1
Assay: self-cleavage, relative activity (ratio to wild type); higher = more cleavage; co-transcriptional
C22A A59C gave a self-cleavage of 0.192. For C22A U43C, the self-cleavage was 0.167. In the case of C22A U67C, the self-cleavage is reported as 0.21. U21C G37U showed a self-cleavage of 0.264. U21C G37A gave a self-cleavage of 0.261. For C22A C39A, the self-cleavage was 0.161. C22A C39G showed a self-cleavage of 0.223. Variant A23C G31A has a self-cleavage of 0.86. U21C G48A showed a self-cleavage of 0.933. U21G G65A showed a self-cleavage of 0.255. In the case of C22U A23C, the self-cleavage is reported as 0.276. For C22A A51C, the self-cleavage was 0.176. For C22U G28C, the self-cleavage was 0.126. U21G C29A showed a self-cleavage of 0.242. Work on C22A G58C yielded a self-cleavage of 0.184. Variant A23G G58A has a self-cleavage of 0.991. For A23G G58U, the self-cleavage was 0.972. With C22A C57A the self-cleavage was 0.174. Variant U21C C39G has a self-cleavage of 0.895. With C22G G37A the self-cleavage was 0.174. Work on C22G G37C yielded a self-cleavage of 0.956. With C22A A60U the self-cleavage was 0.222. C22A A60G showed a self-cleavage of 0.279. C22U A52U showed a self-cleavage of 0.315. Work on U21A G37A yielded a self-cleavage of 0.283. U21A G37C showed a self-cleavage of 0.217. A23G A51G gave a self-cleavage of 0.962. Variant A23G A51C has a self-cleavage of 0.914. Variant C22G G58A has a self-cleavage of 0.103. Variant U21C G28A has a self-cleavage of 0.192. A23C U38C showed a self-cleavage of 0.85. For A23C U38A, the self-cleavage was 0.75. With U21G C63G the self-cleavage was 0.158. Variant U21G C63U has a self-cleavage of 0.434. In the case of A23C G41C, the self-cleavage is reported as 0.725. Work on A23C G41A yielded a self-cleavage of 0.809. Variant C22G U61A has a self-cleavage of 0.181. In the case of U21G C24G, the self-cleavage is reported as 0.0852. With C22G G68A the self-cleavage was 0.267. Work on C22G G68C yielded a self-cleavage of 0.156. Work on A23C U46C yielded a self-cleavage of 0.959. With A23C U46G the self-cleavage was 0.962. With C22G C29A the self-cleavage was 0.258. With U21G U49A the self-cleavage was 0.527. In the case of U21G U49G, the self-cleavage is reported as 0.486. Work on U21C C66A yielded a self-cleavage of 0.611. U21A U67G showed a self-cleavage of 1.02. Variant A23C G56U has a self-cleavage of 0.88. With U21A G28U the self-cleavage was 0.241. For U21C U64A, the self-cleavage was 0.706. U21A U43C gave a self-cleavage of 0.909. For C22G U49A, the self-cleavage was 0.172. C22A U62C gave a self-cleavage of 0.17. In the case of C22A U62A, the self-cleavage is reported as 0.148. For U21C U44G, the self-cleavage was 0.859. With U21C U44A the self-cleavage was 0.911. U21C U44C gave a self-cleavage of 0.824. For A23G A40U, the self-cleavage was 0.665. In the case of C22A C34U, the self-cleavage is reported as 0.219. C22A C34G gave a self-cleavage of 0.175. Variant U21C C57G has a self-cleavage of 0.384. U21G U38C showed a self-cleavage of 0.932. In the case of C22A C54A, the self-cleavage is reported as 0.0889. Work on A23C G25C yielded a self-cleavage of 0.151. A23C G25U showed a self-cleavage of 0.176. With A23C C29G the self-cleavage was 0.485. For A23G C29U, the self-cleavage was 0.217. In the case of C22U G30A, the self-cleavage is reported as 0.164. C22U G30U showed a self-cleavage of 0.221. C22A A23U gave a self-cleavage of 0.281. Work on C22A A23G yielded a self-cleavage of 0.198. Variant U21A G50U has a self-cleavage of 0.971. Variant A23G C45A has a self-cleavage of 0.955. C22A U38C showed a self-cleavage of 0.151. With A23U A42C the self-cleavage was 0.992. Variant C22A C66A has a self-cleavage of 0.232. C22U A51U gave a self-cleavage of 0.295. Work on U21C U62A yielded a self-cleavage of 0.661. U21G G58A showed a self-cleavage of 0.281. For U21G U36C, the self-cleavage was 0.134. U21G U36G gave a self-cleavage of 0.232. A23C A40U showed a self-cleavage of 0.79. Variant A23C A40C has a self-cleavage of 0.544. Variant U21G C39A has a self-cleavage of 0.396. With U21G C39U the self-cleavage was 0.61. In the case of C22U G48A, the self-cleavage is reported as 0.379. In the case of U21G G50C, the self-cleavage is reported as 0.616. U21G G50A gave a self-cleavage of 0.488. U21A U64G gave a self-cleavage of 0.898. U21C G56C showed a self-cleavage of 0.426. U21C C33G showed a self-cleavage of 0.217. With U21C C33A the self-cleavage was 0.516. With C22G U26A the self-cleavage was 0.144. C22G U26C gave a self-cleavage of 0.209. In the case of A23C G37U, the self-cleavage is reported as 0.299. Variant C22U G68U has a self-cleavage of 0.51. With U21G U67C the self-cleavage was 0.458. Work on U21G U67A yielded a self-cleavage of 0.549. Variant A23G U61A has a self-cleavage of 0.867. A23G U61G showed a self-cleavage of 0.734. Work on C22U U46C yielded a self-cleavage of 0.369. C22U U46G gave a self-cleavage of 0.274. Work on U21C A42C yielded a self-cleavage of 0.853. U21A U62C gave a self-cleavage of 0.844. A23C C35U gave a self-cleavage of 0.844. In the case of A23C C35A, the self-cleavage is reported as 0.26. A23G C39U gave a self-cleavage of 0.86. With A23G U53G the self-cleavage was 0.85. C22G C57A showed a self-cleavage of 0.221. C22G C57U showed a self-cleavage of 0.148. Work on A23C U43C yielded a self-cleavage of 0.89. Work on C22U C29A yielded a self-cleavage of 0.172. In the case of A23G U26G, the self-cleavage is reported as 0.788. With A23G U26C the self-cleavage was 1.03. Variant A23C U36A has a self-cleavage of 0.335. A23C U36G showed a self-cleavage of 0.326. With A23C G68A the self-cleavage was 0.969. Work on U21C U67G yielded a self-cleavage of 0.978. With A23C U26A the self-cleavage was 0.628. Variant A23C U26C has a self-cleavage of 0.966. In the case of U21A G68A, the self-cleavage is reported as 1.02. Work on A23G C27G yielded a self-cleavage of 0.175. With A23G G50A the self-cleavage was 0.971. Work on A23G G50U yielded a self-cleavage of 0.971. U21C C24A showed a self-cleavage of 0.376. C22A C27A showed a self-cleavage of 0.158. With C22A C27U the self-cleavage was 0.144. Variant C22A C27G has a self-cleavage of 0.168. A23C U69G gave a self-cleavage of 1.02. Work on A23C U53A yielded a self-cleavage of 0.89. C22G C24U showed a self-cleavage of 0.182. With C22G C24G the self-cleavage was 0.0697. For A23C U62A, the self-cleavage was 0.755. Variant A23G C35U has a self-cleavage of 0.935. C22U C54G gave a self-cleavage of 0.285. Variant C22U C54U has a self-cleavage of 0.349. In the case of U21C C29A, the self-cleavage is reported as 0.274. For A23C C63U, the self-cleavage was 0.969. In the case of U21C G31A, the self-cleavage is reported as 0.569. With U21C G31C the self-cleavage was 0.16. In the case of C22U U26G, the self-cleavage is reported as 0.207. Work on C22U U26C yielded a self-cleavage of 0.279. U21G A59U gave a self-cleavage of 0.219. U21G A59G gave a self-cleavage of 0.675. Variant U21G U26C has a self-cleavage of 0.308. With U21C U61A the self-cleavage was 0.538. In the case of A23G G31A, the self-cleavage is reported as 0.781. In the case of A23G G31U, the self-cleavage is reported as 0.583. Work on A23C U44A yielded a self-cleavage of 0.936. For A23C U44G, the self-cleavage was 0.946. In the case of U21G G28A, the self-cleavage is reported as 0.245. Work on U21G G28C yielded a self-cleavage of 0.162. U21A C39A gave a self-cleavage of 0.911. A23G C57A gave a self-cleavage of 0.394. Work on A23C G30U yielded a self-cleavage of 0.317. For A23C G58U, the self-cleavage was 0.929. A23C G58A showed a self-cleavage of 0.89. C22A G25C showed a self-cleavage of 0.255. Work on C22U C35G yielded a self-cleavage of 0.165. U21C U26A gave a self-cleavage of 0.216. A23C U55A gave a self-cleavage of 0.866. A23C U55G showed a self-cleavage of 0.708. C22A C63U gave a self-cleavage of 0.194. U21G U61A gave a self-cleavage of 0.319. Variant C22A G47C has a self-cleavage of 0.157. C22G U44G gave a self-cleavage of 0.16. With U21C A60C the self-cleavage was 0.406.
